Target: CD38 (human) (UniProt P28907)
Assay: cell-based or functional assay

Which daratumumab-induced fratricide of expanded NK cells (1 µg/mL daratumumab, 4 h, PI flow cytometry) (times lower (g-NK vs cNK)) does the source give for daratumumab (antibody) here?
The daratumumab-induced fratricide of expanded NK cells (1 µg/mL daratumumab, 4 h, PI flow cytometry) (times lower (g-NK vs cNK)) was 13.

And the g-NK cell-mediated cytotoxicity against daratumumab-treated MM cell lines, correlation with CD38 expression?
Its g-NK cell-mediated cytotoxicity against daratumumab-treated MM cell lines, correlation with CD38 expression is 0.92 R^2.
